Reference: patent US20240116985A1, “STAPLED PEPTIDES AND METHODS THEREOF” (priority 2020, published 2024)
Values belong to the binder of their own block, whether it stands above or below them. Starred links: 1 amine or outer side, 2 acyl side, 3 side chain; linkers in the order of their positions; H or OH if unused. Positions of bridges follow the written chain, without caps; N, C: chain ends. Non-standard residues stand in square brackets, D forms with d. Primed or numbered codes have the meaning given here. PyrS2″ = (S)-3-amino-1-((pent-4-en-1-yloxy)carbonyl)pyrrolidine-3-carboxylic acid (stapling residue), C=CCCCOC(=O)N1CC[C@@](N[*:1])(C(=O)[*:2])C1; B5(4) = 2,2-bis(4-pentenyl)glycine = 2-amino-2-(pent-4-en-1-yl)hept-6-enoic acid (stitching residue), C=CCCCC(CCCC=C)(N[*:1])C(=O)[*:2]; B5(5) = 2,2-bis(4-pentenyl)glycine, 2-amino-2-(pent-4-en-1-yl)hept-6-enoic acid (stitching residue), C=CCCCC(CCCC=C)(N[*:1])C(=O)[*:2]; PyrS2 = (S)-3-amino-1-((pent-4-en-1-yloxy)carbonyl)pyrrolidine-3-carboxylic acid, C=CCCCOC(=O)N1CC[C@@](N[*:1])(C(=O)[*:2])C1; B5(19) = 2-amino-2-(pent-4-en-1-yl)hept-6-enoic acid (bis(4-pentenyl)glycine), C=CCCCC(CCCC=C)(N[*:1])C(=O)[*:2]; B5(25) = 2-amino-2-(pent-4-en-1-yl)hept-6-enoic acid (stitching residue), C=CCCCC(CCCC=C)(N[*:1])C(=O)[*:2]; B5(3) = 2,2-bis(4-pentenyl)glycine (stitching residue), C=CCCCC(CCCC=C)(N[*:1])C(=O)[*:2]; B5 = 2-amino-2-(pent-4-en-1-yl)hept-6-enoic acid, C=CCCCC(CCCC=C)(N[*:1])C(=O)[*:2]; PyrR = (R)-1-((allyloxy)carbonyl)-3-aminopyrrolidine-3-carboxylic acid; RbGlu = 3-aminopentanedioic acid, R/S prefix not explained; SbGlu = 3-aminopentanedioic acid, R/S prefix not explained; Phe(3-COOH) = N[C@@H](Cc1cccc(C(=O)O)c1)C(=O)O; Trp(5-F) = N[C@@H](Cc1c[nH]c2ccc(F)cc12)C(=O)O; Phe(2-CF3) = N[C@@H](Cc1ccccc1C(F)(F)F)C(=O)O; Trp(1-Me) = Cn1cc(C[C@H](N)C(=O)O)c2ccccc21; Phe(2-Cl) = N[C@@H](Cc1ccccc1Cl)C(=O)O; dαMeGly(allyl) = C=CC[C@@](C)(N)C(=O)O; 1Nal = N[C@@H](Cc1cccc2ccccc12)C(=O)O; Bta = N[C@@H](Cc1csc2ccccc12)C(=O)O; αAllylPro = C=CC[C@@]1(C(=O)O)CCCN1; tBuAla = CC(C)(C)C[C@H](N)C(=O)O; 3Thi = N[C@@H](Cc1ccsc1)C(=O)O; Cha = N[C@@H](CC1CCCCC1)C(=O)O; S8 = C=CCCCCCC[C@](C)(N)C(=O)O; Thr(ol) = C[C@@H](O)[C@H](N)CO; Phe(ol) = N[C@H](CO)Cc1ccccc1; R5 = C=CCCC[C@@](C)(N)C(=O)O; Nle = CCCC[C@H](N)C(=O)O

Key:
[1] = target: full-length beta-Catenin (Uniprot ID P35222) (Homo sapiens (Human)) (UniProt P35222); test: fluorescence polarization competition; full-length beta-catenin, competitor 5FAM-TCF4(10-53) probe
[2] = target: full-length beta-Catenin (Uniprot ID P35222) (Homo sapiens (Human)) (UniProt P35222); test: fluorescence polarization competition, full-length beta-catenin with 5FAM-TCF4(10-53) probe as competitor
Target sequence in this assay (P35222 2-781 limits assumed): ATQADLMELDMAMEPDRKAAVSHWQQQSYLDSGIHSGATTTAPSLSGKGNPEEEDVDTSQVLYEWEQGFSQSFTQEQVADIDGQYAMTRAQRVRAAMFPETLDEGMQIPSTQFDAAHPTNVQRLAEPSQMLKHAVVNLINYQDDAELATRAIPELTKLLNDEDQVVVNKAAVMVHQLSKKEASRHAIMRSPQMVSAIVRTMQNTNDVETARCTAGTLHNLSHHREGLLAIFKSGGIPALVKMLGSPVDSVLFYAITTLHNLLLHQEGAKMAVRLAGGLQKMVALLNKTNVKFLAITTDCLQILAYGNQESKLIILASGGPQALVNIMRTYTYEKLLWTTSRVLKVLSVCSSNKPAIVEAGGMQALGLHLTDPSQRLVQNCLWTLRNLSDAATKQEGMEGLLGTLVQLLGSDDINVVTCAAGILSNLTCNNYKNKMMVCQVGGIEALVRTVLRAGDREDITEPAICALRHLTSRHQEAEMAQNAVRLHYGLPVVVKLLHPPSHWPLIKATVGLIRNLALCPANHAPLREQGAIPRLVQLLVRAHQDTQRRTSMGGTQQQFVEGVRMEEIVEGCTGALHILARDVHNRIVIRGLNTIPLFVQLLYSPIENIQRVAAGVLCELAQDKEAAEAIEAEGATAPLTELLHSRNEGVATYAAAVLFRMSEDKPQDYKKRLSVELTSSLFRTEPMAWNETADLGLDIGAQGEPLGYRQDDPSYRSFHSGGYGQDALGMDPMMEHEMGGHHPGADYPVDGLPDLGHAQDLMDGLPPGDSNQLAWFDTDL

[3] = target: full-length beta-Catenin (Uniprot ID P35222) (Homo sapiens (Human)) (UniProt P35222); test: fluorescence polarization competition: peptide titrated against 10 nM full-length beta-catenin + 10 nM 5FAM-TCF4(10-53) probe
Target sequence in this assay (P35222 2-781 limits assumed): as above

[4] = target: full-length beta-Catenin (Uniprot ID P35222) (Homo sapiens (Human)) (UniProt P35222); test: fluorescence polarization competition; peptide displaces 5FAM-TCF4(10-53) from full-length beta-catenin
Target sequence in this assay (P35222 2-781 limits assumed): as above

[5] = target: B-cat-Halo (beta-catenin HaloTag NanoBRET construct expressed in HEK293 cells) (UniProt P35222); test: NanoBRET in HEK293 cells, Bcat-Halo + TCF4-Luc, peptide at 10 uM
[6] = target: full-length beta-Catenin (Uniprot ID P35222) (Homo sapiens (Human)) (UniProt P35222); test: cell-based or functional assay
Target sequence in this assay (P35222 2-781 limits assumed): as above

Bcat-Halo = Bcat-Halo (UniProt P35222); test: NanoBRET Abs IC50 in HEK293 cells; Bcat-Halo with TCF4-Luc as competitor
[7] = target: full-length beta-Catenin (Uniprot ID P35222) (Homo sapiens (Human)) (UniProt P35222); test: fluorescence polarization competition; full-length beta-catenin + 5FAM-TCF4(10-53) probe as competitor
Target sequence in this assay (P35222 2-781 limits assumed): as above

[8] = target: full-length beta-Catenin (Uniprot ID P35222) (Homo sapiens (Human)) (UniProt P35222); test: fluorescence polarization competition; peptide titrated against 10 nM full-length beta-catenin + 10 nM 5FAM-TCF4(10-53)
Target sequence in this assay (P35222 2-781 limits assumed): as above

[9] = target: full-length beta-Catenin (Uniprot ID P35222) (Homo sapiens (Human)) (UniProt P35222); test: fluorescence polarization competition; displacement of 5FAM-TCF4(10-53) from full-length beta-catenin
Target sequence in this assay (P35222 whole entry, one chain of several): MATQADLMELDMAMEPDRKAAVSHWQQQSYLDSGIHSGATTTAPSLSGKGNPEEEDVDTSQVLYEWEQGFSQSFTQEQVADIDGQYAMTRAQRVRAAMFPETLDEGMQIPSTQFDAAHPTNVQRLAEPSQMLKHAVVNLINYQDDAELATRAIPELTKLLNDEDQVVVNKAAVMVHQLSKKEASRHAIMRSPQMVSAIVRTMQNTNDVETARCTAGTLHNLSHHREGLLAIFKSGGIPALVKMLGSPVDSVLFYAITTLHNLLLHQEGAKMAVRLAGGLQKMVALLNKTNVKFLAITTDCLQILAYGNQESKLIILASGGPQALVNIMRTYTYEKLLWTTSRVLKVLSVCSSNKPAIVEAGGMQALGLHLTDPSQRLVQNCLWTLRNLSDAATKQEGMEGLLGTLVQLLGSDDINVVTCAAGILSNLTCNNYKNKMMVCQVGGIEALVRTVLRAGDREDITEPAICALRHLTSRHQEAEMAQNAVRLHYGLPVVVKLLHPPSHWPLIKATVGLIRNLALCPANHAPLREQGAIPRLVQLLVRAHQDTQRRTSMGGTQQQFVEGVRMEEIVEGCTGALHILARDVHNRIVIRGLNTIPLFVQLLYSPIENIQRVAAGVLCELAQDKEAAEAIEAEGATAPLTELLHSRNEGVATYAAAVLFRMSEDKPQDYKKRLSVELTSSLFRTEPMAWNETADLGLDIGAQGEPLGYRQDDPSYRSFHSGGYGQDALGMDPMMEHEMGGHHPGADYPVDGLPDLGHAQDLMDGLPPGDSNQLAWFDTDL

[10] = target: full-length beta-Catenin (Uniprot ID P35222) (Homo sapiens (Human)) (UniProt P35222); test: fluorescence polarization competition; full-length beta-catenin + 5FAM-TCF4 10-53 probe
[11] = target: full-length beta-Catenin (Uniprot ID P35222) (Homo sapiens (Human)) (UniProt P35222); test: fluorescence polarization competition; competitor 5FAM-TCF4(10-53) on full-length beta-catenin
Target sequence in this assay (P35222 whole entry, one chain of several): as above

[12] = target: full-length beta-Catenin (Uniprot ID P35222) (Homo sapiens (Human)) (UniProt P35222); test: fluorescence polarization competition; full-length beta-catenin + 5FAM-TCF4(10-53) probe
Target sequence in this assay (P35222 whole entry, one chain of several): as above

[13] = target: full-length beta-Catenin (Uniprot ID P35222) (Homo sapiens (Human)) (UniProt P35222); test: fluorescence polarization competition; 10 nM full-length beta-catenin with 10 nM 5FAM-TCF4(10-53) probe as competitor

Sequence of B-cat-Halo (beta-catenin HaloTag NanoBRET construct expressed in HEK293 cells) (P35222 whole entry): as the sequence (P35222 whole entry, one chain of several) above
Sequence of Bcat-Halo (P35222 whole entry): as the sequence (P35222 whole entry, one chain of several) above

Binder: Ac-[αAllylPro][SbGlu]I[B5(4)]DEAAFQ[S8]F[Bta]Q-NH2 (staple 1-4, 4-11) [I-672]
IC50 [1]: 5000 nM | EC50 [2]: 5000 nM

Binder: Ac-[αAllylPro]D[tBuAla][B5(5)]DDAAFN[PyrS2][3Thi][Bta]-NH2 (staple 1-4, 4-11) [I-785]
EC50 [3]: 6 nM | IC50 [4]: 6 nM | NanoBRET % inh @ 10 uM [5]: 31%

Binder: Ac-[αAllylPro]DI[B5(4)][RbGlu]EAAFQ[S8]F[Bta]Q-NH2 (staple 1-4, 4-11) [I-675]
IC50 [1]: 4520 nM | EC50 [2]: 4520 nM

Binder: Ac-[αAllylPro]D[tBuAla][B5(3)]DDAAFN[PyrS2″][Phe(2-Cl)][Bta][Thr(ol)] (staple 1-4, 4-11) [I-1082]
DLD1 reporter assay Abs IC50 [6]: 4800 nM | IC50 (Bcat-Halo): 14100 nM | EC50 [7]: 5 nM | IC50 [8]: 5 nM

Binder: Ac-[αAllylPro]DI[B5(19)]DEA[Nle]FQ[S8]F[Bta]Q-NH2 (staple 1-4, 4-11) [I-666]
IC50 [1]: 626 nM | EC50 [2]: 626 nM

Binder: Ac-[αAllylPro]DI[B5(4)][SbGlu]EAAFQ[S8]F[Bta]Q-NH2 (staple 1-4, 4-11) [I-676]
IC50 [1]: 5000 nM | EC50 [2]: 5000 nM

Binder: Ac-[αAllylPro]DI[B5(4)]DEA[Nle]FQ[S8]F[Bta]Q-NH2 (staple 1-4, 4-11) [I-667]
IC50 [1]: 585 nM | EC50 [2]: 585 nM

Binder: Ac-[αAllylPro]D[tBuAla][B5]DDAAFN[PyrS2][3Thi][Trp(1-Me)]H-NH2 (staple 1-4, 4-11) [I-799]
EC50 [3]: 92 nM | IC50 [13]: 92 nM | NanoBRET % inh @ 10 uM [5]: 0.9%

Binder: Ac-[αAllylPro]D[tBuAla][B5(3)]DDAAFN[PyrS2″][Phe(2-Cl)][Bta][Phe(ol)] (staple 1-4, 4-11) [I-1083]
IC50 (Bcat-Halo): 18800 nM | EC50 [7]: 8 nM | IC50 [8]: 8 nM

Binder: Ac-[αAllylPro]DI[B5(4)]DE[Nle]AFQ[S8]F[Bta]Q-NH2 (staple 1-4, 4-11) [I-657]
IC50 [1]: 46 nM | EC50 [2]: 46 nM

Binder: Ac-[αAllylPro]DI[B5(4)]DE[Nle]AFQ[S8]F[Bta]Q-NH2 (staple 1-4, 4-11) [I-656]
IC50 [1]: 73 nM | EC50 [2]: 73 nM

Binder: Ac-[αAllylPro]D[tBuAla][B5]DDAAFN[PyrS2][3Thi][Trp(5-F)]H-NH2 (staple 1-4, 4-11) [I-800]
EC50 [3]: 79 nM | IC50 [13]: 79 nM | NanoBRET % inh @ 10 uM [5]: 8.1%

Binder: Ac-[αAllylPro]D[tBuAla][B5(5)]DDAAFN[PyrS2][3Thi][1Nal]H-NH2 (staple 1-4, 4-11) [I-789]
EC50 [3]: 19 nM | IC50 [4]: 19 nM | NanoBRET % inh @ 10 uM [5]: 9.7%

The next lines start with the values.

IC50 [9]: 40 nM | DLD1 reporter assay Abs IC50 [6]: > 20000 nM | IC50 (Bcat-Halo): > 20000 nM | EC50 [7]: 40 nM
Binder: Ac-[αAllylPro]D[tBuAla][B5(5)]DDAAFL[S8][Phe(2-Cl)][Bta][dT]-NH2 (staple 1-4, 4-11) [I-1097]

IC50 [9]: 36 nM | IC50 (Bcat-Halo): > 20000 nM | EC50 [7]: 36 nM
Binder: Ac-[αAllylPro]D[tBuAla][B5(5)]DDAA[Cha]S[PyrS2″]F[Bta]S-NH2 (staple 1-4, 4-11) [I-1105]

EC50 [1]: 38 nM | IC50 [10]: 38 nM
Binder: Ac-[αAllylPro]D[tBuAla][B5(4)]DDAAFF[PyrS2″][Phe(2-Cl)][Bta][Thr(ol)] (staple 1-4, 4-11) [I-1311]

IC50 [11]: 1950 nM
B1: I-2569 (peptide)
peptide: Ac-[PyrR]ED[tBuAla][B5(25)]D[Phe(3-COOH)]AAFL[PyrS2″][Phe(2-CF3)][Bta]Q-NH2
modifications: staple 1-5, 5-12 (inferred); not fully specified; printed as Ac-PyrR-Glu-Asp-Npg-B5-Asp-3COOHF-Ala-Ala-Phe-Leu-PyrS2-2F3MeF-BztA-Gln-NH2

IC50 [9]: 9 nM | IC50 (Bcat-Halo): 9000 nM | EC50 [7]: 9 nM
Binder: Ac-[αAllylPro]D[tBuAla][B5(5)]DDAAFS[PyrS2″]F[Bta]S-NH2 (staple 1-4, 4-11) [I-1099]

EC50 [12]: 86 nM | IC50 [10]: 86 nM
Binder: Ac-[αAllylPro]D[tBuAla][B5(4)]DDAAFF[PyrS2][3Thi][Bta][Thr(ol)] (staple 1-4, 4-11) [I-1303]

IC50 [11]: 67 nM
Binder: Ac-P[dαMeGly(allyl)]D[tBuAla][B5(4)]D[Phe(3-COOH)]AAFL[PyrS2″][Phe(2-CF3)][Bta]Q-NH2 (staple 5-12, 2-5; also: -CH=CH- in each staple reduced to -CH2-CH2-) [I-2572]

IC50 [11]: 522 nM
Binder: Ac-P[R5]D[tBuAla][B5(25)]D[Phe(3-COOH)]AAFL[PyrS2″][Phe(2-CF3)][Bta]Q-NH2 (staple 5-12, 2-5) [I-2567]

EC50 [12]: 45 nM | IC50 [10]: 45 nM
Binder: Ac-[αAllylPro]D[tBuAla][B5(4)]DDAAFL[PyrS2][3Thi][Bta][Thr(ol)] (staple 1-4, 4-11) [I-1302]

IC50 [11]: 234 nM
Binder: Ac-P[R5]D[tBuAla][B5(25)]D[Phe(3-COOH)]AAFL[PyrS2″][Phe(2-CF3)][Bta]Q-NH2 (staple 5-12, 2-5; also: staple -CH=CH- reduced to -CH2-CH2-) [I-2573]

DLD1 reporter assay Abs IC50 [6]: > 20000 nM | IC50 (Bcat-Halo): 9300 nM | EC50 [7]: 9 nM | IC50 [8]: 9 nM
Binder: Ac-[αAllylPro]D[tBuAla][B5(3)]DDAAFT[S8][Phe(2-Cl)][Bta]Q-NH2 (staple 1-4, 4-11; also: later eluting staple isomer) [I-1087]

EC50 [1]: 124 nM | IC50 [10]: 124 nM
Binder: Ac-[αAllylPro]D[Cha][B5(4)]DTAAFT[PyrS2″][Phe(2-Cl)][Bta][Thr(ol)] (staple 1-4, 4-11) [I-1310]

IC50 [11]: 4770 nM
B2: I-2568 (peptide)
peptide: Ac-[PyrR]AD[tBuAla][B5(25)]D[Phe(3-COOH)]AAFL[PyrS2″][Phe(2-CF3)][Bta]Q-NH2
modifications: staple 1-5, 5-12 (inferred); not fully specified; printed as Ac-PyrR-Ala-Asp-Npg-B5-Asp-3COOHF-Ala-Ala-Phe-Leu-PyrS2-2F3MeF-BztA-Gln-NH2

EC50 [1]: 59 nM | IC50 [10]: 59 nM
Binder: Ac-[αAllylPro]D[tBuAla][B5(4)]DTAAFT[PyrS2″][Phe(2-Cl)][Bta][Thr(ol)] (staple 1-4, 4-11) [I-1309]

IC50 [9]: 23 nM | IC50 (Bcat-Halo): > 20000 nM | EC50 [7]: 23 nM
Binder: Ac-[αAllylPro]D[tBuAla][B5(5)]DDAAFS[PyrS2″][Cha][Bta]S-NH2 (staple 1-4, 4-11) [I-1106]

EC50 [1]: 21 nM | IC50 [10]: 21 nM
Binder: Ac-[αAllylPro]D[Cha][B5(4)]DDAAFL[PyrS2″][Phe(2-Cl)][Bta][Thr(ol)] (staple 1-4, 4-11) [I-1307]
